# Data as given in patent US20160279215A1, “NOVEL PEPTIDES AND COMBINATION OF PEPTIDES FOR USE IN IMMUNOTHERAPY AGAINST VARIOUS TUMORS” (immatics biotechnologies GmbH, priority 2015, published 2016).
# Target: T1, HLA-A*02:01 (Homo sapiens, UniProt P04439, D140Y/D185E/D98H/E176V/E277Q/G131W/G231S/I119V/I121R/I166T/I218V/L300P/L318F/N151K/N90K/P208A/P217A/Q86G/Q94H/R138H/R169H/T345S)
# T1 construct: made in house
# Test: MHC binding assay: UV-ligand exchange with β2m ELISA (peptide exchange yield)
# Conditions: binding to HLA-A*02:01 evaluated by peptide exchange yield (UV-ligand exchange, β2m ELISA)
# From the text: Candidate peptides for T cell based therapies according to the present invention were further tested for their MHC binding capacity (affinity). The individual peptide-MHC complexes were produced by UV-ligand exchange, where a UV-sensitive peptide is cleaved upon UV-irradiation, and exchanged with the peptide of interest as analyzed. Only peptide candidates that can effectively bind and stabilize the peptide-receptive MHC molecules prevent dissociation of the MHC complexes. To determine the yield of the exchange reaction, an ELISA was performed based on the detection of the light chain (β2m) of stabilized MHC complexes. The assay was performed as generally described in Rodenko et al. (Rodenko et al., 2006).
# 96 well MAXISorp plates (NUNC) were coated over night with 2 ug/ml streptavidin in PBS at room temperature, washed 4× and blocked for 1 h at 37° C. in 2% BSA containing blocking buffer. Refolded HLA-A*02:01/MLA-001 monomers served as standards, covering the range of 15-500 ng/ml. Peptide-MHC monomers of the UV-exchange reaction were diluted 100 fold in blocking buffer. Samples were incubated for 1 h at 37° C., washed four times, incubated with 2 ug/ml HRP conjugated anti-β2m for 1 h at 37° C., washed again and detected with TMB solution that is stopped with […]. Absorption was measured at 450 nm. Candidate peptides that show a high exchange yield (preferably higher than 50%, most preferred higher than 75%) are generally preferred for a generation and production of antibodies or fragments thereof, and/or T cell receptors or fragments thereof, as they show sufficient avidity to the MHC molecules and prevent dissociation of the MHC complexes.
row,Substance,Peptide exchange
1,33 (TLDRNSLYV; listed as Homo sapiens) [compound 33],++ (≧20% = ++)
2,23 (ALLSPLSLA; listed as Homo sapiens) [compound 23],+++ (≧50 = +++)
3,132 (ALLNNVIEV; listed as Homo sapiens) [compound 132],+++ (≧50 = +++)
4,85 (KLLDKPEQFL; listed as Homo sapiens) [compound 85],++ (≧20% = ++)
5,44 (AVFNLVHVV; listed as Homo sapiens) [compound 44],+++ (≧50 = +++)
6,26 (VLDGKVAVV; listed as Homo sapiens) [compound 26],+++ (≧50 = +++)
7,6 (FLNAIETAL; listed as Homo sapiens) [compound 6],++++ (≧75% = ++++)
8,34 (TLNTLDINL; listed as Homo sapiens) [compound 34],+++ (≧50 = +++)
9,142 (LLDAAHASI; listed as Homo sapiens) [compound 142],++ (≧20% = ++)
10,25 (LLWGHPRVALA; listed as Homo sapiens) [compound 25],+++ (≧50 = +++)
11,47 (GLNGFNVLL; listed as Homo sapiens) [compound 47],+++ (≧50 = +++)
12,22 (LMYPYIYHV; listed as Homo sapiens) [compound 22],+++ (≧50 = +++)
13,106 (VLLGSVVIFA; listed as Homo sapiens) [compound 106],++ (≧20% = ++)
14,41 (IVTEIISEI; listed as Homo sapiens) [compound 41],+++ (≧50 = +++)
15,147 (GLLSALENV; listed as Homo sapiens) [compound 147],+++ (≧50 = +++)
16,51 (LDSEALLTL; listed as Homo sapiens) [compound 51],++ (≧20% = ++)
17,84 (FLLEREQLL; listed as Homo sapiens) [compound 84],++++ (≧75% = ++++)
18,105 (AMLASQTEA; listed as Homo sapiens) [compound 105],++ (≧20% = ++)
19,116 (ALLSSVAEA; listed as Homo sapiens) [compound 116],++ (≧20% = ++)
20,148 (YLILSSHQL; listed as Homo sapiens) [compound 148],+++ (≧50 = +++)

row,Substance,Peptide exchange
1,96 (ALDTTRHEL; listed as Homo sapiens) [compound 96],++ (≧20% = ++)
2,39 (YLEDGFAYV; listed as Homo sapiens) [compound 39],+++ (≧50 = +++)
3,71 (HMSGKLTNV; listed as Homo sapiens) [compound 71],++ (≧20% = ++)
4,86 (SLFSNIESV; listed as Homo sapiens) [compound 86],+++ (≧50 = +++)
5,91 (LLPSIFLMV; listed as Homo sapiens) [compound 91],++ (≧20% = ++)
6,76 (FTAEFLEKV; listed as Homo sapiens) [compound 76],+++ (≧50 = +++)
7,138 (GIINKLVTV; listed as Homo sapiens) [compound 138],++ (≧20% = ++)
8,57 (TLYPGRFDYV; listed as Homo sapiens) [compound 57],++ (≧20% = ++)
9,18 (KTASINQNV; listed as Homo sapiens) [compound 18],++ (≧20% = ++)
10,94 (YLDEVAFML; listed as Homo sapiens) [compound 94],+++ (≧50 = +++)
11,150 (VLLDMVHSL; listed as Homo sapiens) [compound 150],+++ (≧50 = +++)
12,74 (GLAFLPASV; listed as Homo sapiens) [compound 74],++ (≧20% = ++)
13,81 (ILAEEPIYI; listed as Homo sapiens) [compound 81],++ (≧20% = ++)
14,95 (KLIDEDEPLFL; listed as Homo sapiens) [compound 95],+++ (≧50 = +++)
15,10 (QLIEKNWLL; listed as Homo sapiens) [compound 10],+++ (≧50 = +++)
16,110 (QIQGQVSEV; listed as Homo sapiens) [compound 110],++ (≧20% = ++)
17,90 (AILNVDEKNQV; listed as Homo sapiens) [compound 90],++ (≧20% = ++)
18,20 (ALVEKGEFAL; listed as Homo sapiens) [compound 20],++ (≧20% = ++)
19,134 (SLYKSFLQL; listed as Homo sapiens) [compound 134],++ (≧20% = ++)

# Other lines, results leading:
row,Peptide exchange,Substance
1,++ (≧20% = ++),151 (DISKRIQSL; listed as Homo sapiens) [compound 151]
2,+++ (≧50 = +++),175 (SLLDLVQSL; listed as Homo sapiens) [compound 175]
3,+++ (≧50 = +++),200 (IMPTFDLTKV; listed as Homo sapiens) [compound 200]
4,++ (≧20% = ++),185 (TLYQGLPAEV; listed as Homo sapiens) [compound 185]
5,++ (≧20% = ++),208 (HLNNDRNPL; listed as Homo sapiens) [compound 208]
6,+++ (≧50 = +++),249 (YLYQILQGI; listed as Homo sapiens) [compound 249]
7,++++ (≧75% = ++++),161 (NLLDENVCL; listed as Homo sapiens) [compound 161]
8,+++ (≧50 = +++),211 (LLTTVLINA; listed as Homo sapiens) [compound 211]
9,++ (≧20% = ++),229 (YLYELEHAL; listed as Homo sapiens) [compound 229]
10,++ (≧20% = ++),252 (SLMEKNQSL; listed as Homo sapiens) [compound 252]
11,+++ (≧50 = +++),262 (LLLEAVWHL; listed as Homo sapiens) [compound 262]
12,++ (≧20% = ++),163 (GLEERLYTA; listed as Homo sapiens) [compound 163]
13,++ (≧20% = ++),170 (FIAAVVEKV; listed as Homo sapiens) [compound 170]
14,+++ (≧50 = +++),224 (LLFDWSGTGRADA; listed as Homo sapiens) [compound 224]
15,+++ (≧50 = +++),160 (TLQEWLTEV; listed as Homo sapiens) [compound 160]
16,+++ (≧50 = +++),250 (LMQDSRLYL; listed as Homo sapiens) [compound 250]
17,+++ (≧50 = +++),241 (KQFEGTVEI; listed as Homo sapiens) [compound 241]

row,Peptide exchange,Substance
1,+++ (≧50 = +++),191 (AAIEIFEKV; listed as Homo sapiens) [compound 191]
2,++ (≧20% = ++),222 (LLTGVFAQL; listed as Homo sapiens) [compound 222]
3,++ (≧20% = ++),154 (AIIKEIQTV; listed as Homo sapiens) [compound 154]
4,+++ (≧50 = +++),204 (SEWGSPHAAVP; listed as Homo sapiens) [compound 204]
5,++ (≧20% = ++),284 (KLMDPGSLPPL; listed as Homo sapiens) [compound 284]
6,+++ (≧50 = +++),213 (ILAVDGVLSV; listed as Homo sapiens) [compound 213]
7,+++ (≧50 = +++),179 (TLGEIIKGV; listed as Homo sapiens) [compound 179]
8,++ (≧20% = ++),187 (SILKEDPFL; listed as Homo sapiens) [compound 187]
9,++ (≧20% = ++),215 (QIADIVTSV; listed as Homo sapiens) [compound 215]
10,+++ (≧50 = +++),226 (SLAGNLQEL; listed as Homo sapiens) [compound 226]
11,+++ (≧50 = +++),225 (FLPQPVPLSV; listed as Homo sapiens) [compound 225]
12,+++ (≧50 = +++),230 (KLLNMIFSI; listed as Homo sapiens) [compound 230]
13,+++ (≧50 = +++),210 (GLAGDNIYL; listed as Homo sapiens) [compound 210]
14,++ (≧20% = ++),282 (SLYALHVKA; listed as Homo sapiens) [compound 282]
15,++ (≧20% = ++),279 (VLMDEGAVLTL; listed as Homo sapiens) [compound 279]
16,+++ (≧50 = +++),169 (ALADLSVAV; listed as Homo sapiens) [compound 169]
17,+++ (≧50 = +++),220 (ALSELERVL; listed as Homo sapiens) [compound 220]
